Data reported in the nanobody polyreactivity screen of Harvey et al. (2022).

Assay: yeast display, Sf9 membrane polyspecificity reagent, FACS + sequencing; frameworks hold sequencing errors
Outline: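 Sorting gates, low and high (top ~1%), were placed on anti-HA fluorescence to track expression and on streptavidin fluorescence to track reagent binding. A clone's polyreactivity label is taken from the gate it came out of. The reagent was 10% biotinylated, detergent-solubilized Sf9 membrane, applied for 1 hour at 4 °C to galactose-induced yeast display cells.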

Sequence	polyreactivity (PSR sort gate)
QVQLVESGGGLVQAGGSLRLSCAASASTFWRYAMGWYRQAPGKERELVAAISWNGGSTYYADSVKGRFTISRDNAKNTVYLQMNSLKPEDTAVYYCARGYSWSVGYPRVQDMDYWGQGTQVTVSS	high polyreactivity
QVQLVESGGGLVQAGGSLRLSCAASEFTFLLYAMGWYRQAPGKERELVAAISRTGGSTYYADSVKGRFTISRDNAKKTVYLQMNSLNPEDTAVYYCNAAISRAWVSYYGSSSRYDYWGQGTQVTVSS	low polyreactivity
QVQLVESGGGLVQAGGSLRLSCAASFRYNDMGWYRQAPGKERELDAAISSGASTSYPDSVKGRFTISRDNAKNTVYLQMNSLKPEDSAVSYCAAETYELYGLNEYDYWGQGTQVTVSS	low polyreactivity
QVQLVESGGGLVQAGGSLRLSCAASGAILRRYAMGWYRQAPGKERELVAAISYSGGNTYYADSVKGRFTISRDNAKNTVYLQMNSLKPEDTAVYYCAARYYGTYRGFYYWGQGTQVTVSS	high polyreactivity
QVQLVESGGGLVQAGGSLRLSCAASGFAFSYYAMGWYRQATGKEREFVASIDWSGGSTYYADSVKGRFTISRDNAKNTVYLQLNSLKPEDTAVYYCAAELDYFPGYDYWGQGTQVTVSS	low polyreactivity
QVQLVESGGGLVQAGGSLRLSCAASGFAVSYYAMAWYRQAPGKEREFVASSDWSGGSTYYADSVKGRFTISRDNAKNTVYLQMNSLKPEYTAVYYCAAELVYFPGYDYWGQGTQVTVSS	low polyreactivity
QVQLVESGGGLVQAGGSLRLSCAASGFIFAAYAMGWYRQAPGKERELVAAISGSGGRTYYADSVKGRFTISRDNAKNTVYLQMNSLKPEDTAVYYCATPPGYPPGSIKWSRFGYWGQGTQVTVSS	high polyreactivity
QVQLVESGGGLVQAGGSLRLSCAASGFIFADNAMGWYRQAPGKERELVAGITSGGITNYADSVKGRFTISRDNAKNTVYLQMNSLKPEDTAVYYCAVYYRRWFSRYDYWGQGTQVTVSS	low polyreactivity
QVQLVESGGGLVQAGGSLRLSCAASGFIFADNTMGWYRQAPGKERELVAAISRRGGSTYYADSVKGRFTISRDNAKNTVYLQMNSLKPEDTAVYYCAARPFVKHDYWGQGTQVTVSS	high polyreactivity
QVQLVESGGGLVQAGGSLRLSCAASGFIFAEYAMGWYRQAPGKDRELVAAITSGGSTSYADSVKGRFTISRDNAKNTVYLQMNSLKPEDTAVYYCAATWYYHYNDWKHWYEYGYWGQGTQVTVSS	low polyreactivity
QVQLVESGGGLVQAGGSLRLSCAASGFIFAEYAMGWYRQAPGKERELVAAITSGGSTSYADSVKGRFTISRDNAKNTVYLQMNSLIPEDTAVYYCAATWYYHYNDWKHWYEYGYWGQGTQVTVSS	low polyreactivity
QVQLVESGGGLVQAGGSLRLSCAASGFIFAFNAMGWYRQAPGKERELVAAISRSGGSTYADSVKGRFTISRDNEKNTVYLQMNSLKPEDTAVYFCAAYSGVGYLWFDYWGHGTQVTVSS	low polyreactivity
QVQLVESGGGLVQAGGSLRLSCAASGFIFAGNAMGWYRQAPGKEREWVAAISRRGVRTYYADSVKGRFTISRDNAKNTVYLQMNSLKPEDTAVYYCAADRPASLISSDYWGQGTQVTVSS	high polyreactivity
QVQLVESGGGLVQAGGSLRLSCAASGFIFAGYAMGWYRQAPGKERELVAAISSRGGSTYYADSVKGRFTISRDNAKNTVYLQMNSLKPEDTAVYYCNKYYYGFTPDGYKKMDYWGQGTQVTVSS	low polyreactivity
QVQLVESGGGLVQAGGSLRLSCAASGFIFAINAMGWYRQAPGKEREFVAAISSDGASTYYADSVKGRFTISRDNAKNTVYFQMNSLKPEDTAVYYCNAVPYEWTYPYEYYYWGQGTQVTVSS	low polyreactivity
QVQLVESGGGLVQAGGSLRLSCAASGFIFAKYAMGWYRQAPGKEMELVAAITSGGSTNYADSVKGRFTISRDNAKNTVYLQMNSLKPDDTAVYYCNRGFDWWYRYRHYDYWGQGTQVTVSS	low polyreactivity
QVQLVESGGGLVQAGGSLRLSCAASGFIFAKYAMGWYRQAPGKERALGAAITSGGSTNYADSVKGRFTISRDNAKNTLYLQMNSLNPEDTAVYSCNRGFDWCYRYRHYDYWGQGTQVTVSS	low polyreactivity
QVQLVESGGGLVQAGGSLRLSCAASGFIFANYVMGWYRQAPGKERELVAAITYSGNTYYADSVKGRFTISRDNAKNTVYLQMNSLKPVDTAVYYCNADYVEGGLPGYDFDYWGQGTQVTVSS	low polyreactivity
QVQLVESGGGLVQAGGSLRLSCAASGFIFAPNAMGWYRQAPGKERELVAAISQSGASTFYADSVKGRFTISRDNAKNTVYFQMNSLKPEDTAVYYCAAPPYYSYDYWGQGTQVTVSS	low polyreactivity
QVQLVESGGGLVQAGGSLRLSCAASGFIFARNAMGRYRQDTGKERELVAVISTRGRTYYADSVKGRFTISRDNSKNTVYLQMNSLKPEDTAVYYCNADKVIGYDYWGQCTQVTVSS	high polyreactivity
QVQLVESGGGLVQAGGSLRLSCAASGFIFARYAMGWYRQAPGKEREFVAAITWSGGTTYYADSVKGRFTISRDYAKNTVYFQMNSLKPEDTAVYYCAARWGKTLWQYNYWGQGTQVTVSS	high polyreactivity
QVQLVESGGGLVQAGGSLRLSCAASGFIFASNVMGWYRQAPGKERELVAAISWSGTRTYYADSVKGRFTISRDNAKNTVYLQMNSLKPEDTAVYYCAARRLYAGHQYDYWGQGTQVTVSS	high polyreactivity
QVQLVESGGGLVQAGGSLRLSCAASGFIFASYAMGWYRQAPGKERELVAAISSRGGRTYYADSVKGRFTISRDNAKNTVSLQMNSLKPEDTAVYYCAAENYWLAWYKGYDYCGQGTQVTVSS	high polyreactivity
QVQLVESGGGLVQAGGSLRLSCAASGFIFATNAMGWYRQAPGKERELVAAISRSGGSTYYADSVKGRFTISRDNAKNTVYLQMYSLKPEDTAVYYCATPRYRYYTIYDYGYWGQGTQVNVSS	high polyreactivity
QVQLVESGGGLVQAGGSLRLSCAASGFIFATNTMGWYRQAPGKERELVAASSTYYADSVKGRFTISRDNAKNTVYLQMNSLKPEDTAVYYCNADRDSYIGFVVWAGEYWGQGSQVTVSS	low polyreactivity
QVQLVESGGGLVQAGGSLRLSCAASGFIFAVYAMGWYRQAPGKERELVARISSGRGSTYYADSVKGRFTISRDNAKNTVYFQMNSLKPEDTAVYYCAADPVHRFPGTGGYWGQGTQVTVSS	low polyreactivity
QVQLVESGGGLVQAGGSLRLSCAASGFIFAWNDMGWYRQAPGKERELVAAISSGTSTNYADSVKGRFTISRDNAKNTVYLQMNSLKPEDTGVYYCNVDSPLQPYRYYYWGQGSQVTVSS	low polyreactivity
QVQLVESGGGLVQAGGSLRLSCAASGFIFAWYAMGWYRQAPGKERELVADITSGGDTSYADSVKGRFTISLDNAKNTVYLQMNSLKPEDTAVYYCAAVWEPWNIRLVLTAVDYWGQGTQVTVSS	low polyreactivity
QVQLVESGGGLVQAGGSLRLSCAASGFIFAYNAMGWYRQAPGKEREFVAAISRSGGSTRYADSVKGRFTISRDNAKNTVYLQMNSLKPEDTAVYYCAARSGSWGQGTQVTVSS	high polyreactivity
QVQLVESGGGLVQAGGSLRLSCAASGFIFAYNAMGWYRQAPGKERELVAAISRSGGSTRYADSVKGRFTISRDNAKNTVYLQMNSLKPEDTAVYYCAARSGSWGQGTQVTVSS	high polyreactivity
